# From the domain aggregation screens of Martell et al. (2025)
# Test: soluble fraction after stress (log2 fold change); higher = more stays soluble; pooled small domains, quantitative proteomics
# Conditions: stress: 75 degC
# 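Note: 20 min heating vs room temperature control held 20 min.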
row,Sequence,soluble fraction (log2)
1,HMKPTVKGHFTRKESNVGGYADVRGWGVAGTPSMMANQSKDTRRFSTLIVPGRSVNVHPSPTKEAIIWWQS,-0.224
2,HMKPTVKKLLAALPELRSGQPLHLSVATRKLRDAGLLGKNASSPTLFRNYVAQFELIPENQPNAVRYR,-0.786
3,HMKPVSEMDNMEWVREQYFQNMIYEIGEWVKDKKTGIVGEIVKRGTNYVTIVQEDFSLHKIWLEDLETTE,-0.428
4,HMKQDYYSILGVMRDASQEEIKRAYLDAAQRLHPDRNTSAGDTEMFLDVQQAYEVLSNPKRRAQYDATLP,0.383
5,HMKQEFEMGLPNGVGEQMLAHAIEKFDVKLEHSEFGPKLIGTYEELEKAKVFLYEAIEARLNQLE,0.279
6,HMKQISNTDELETMVKKIIDDNEEQVNKYRGGNEKLFGWFVGQAMKNTGGTANPKVVNEILSKLLK,-0.0646
7,HMKQLLHLVIGGELKDVRGIEFEDLSKIDFVGAFPSYKAAYDAWKNAAQRTVDNAEMRYFILHAHR,-1.92
8,HMKQLRVLGIVKAGSILKNSDGSIEFVIEDSGKSLLVKYKGVIPDIFKDGVEAVVEGDLRGSVFNADKLF,-1.14
9,HMKQMNETQQKAFEIYLDSATFETDYKPISEEQLAAKLDALGLKGSSSSINRWKKDFNWAQALQNKVTLAM,-0.166
10,HMKQQNFADLAGRFVFNADNEVVFNFGKHKNVPVATVLKNEPGYYGWMMGGDFPLFTKKILKQIKEA,-1.05
11,HMKQTFGAMLAALRKEKGMTQLELAEQMGVTDKAVSKWERDLSFPDVTSLPRLAEILEVSVDELMQ,-0.146
12,HMKQVNVVSVIGQSEANAKTTLTGLGLKVNVAYEEDTSKADGIVLKQSLEGGKTVNEGTTITITVNKIA,0.579
13,HMKQVSDTGAIDAAIREVMDANPDKVAEYRSGKDKLFGFFVGQIMRAMAGKAAPVVVNDRLKALLD,0.123
14,HMKQVTVGGTINAGGARIYADSYGNGGGRQTFGSDPIYTVLQERNGYILTRWHKLSSGYTGWFKKSDVSA,-0.917
15,HMKQYSFEISKADFKKISENFNFKIINEINDSLIISLNDKNINLDELLIFFVERKIKVRSIENI,-3.69
16,HMKREELTQQTKQNLREAFWSLYIQKPIEKITVKEITDIAGYNRGTFYLYYKDTYDLLAKIE,-0.279
17,HMKRLLLPGDLAGVRRHLLDRENSFHILRVLRLARGSTIEAMDDAGNRFSATLAGVKAGRALFDLAAKI,-1.75
18,HMKRLPAQMGGGDGVLRVPGLNNFVYVTIADKTLPAFNNRVPPKKGLRIWVGYSPEEPNLFQVLSTRTD,-1.83
19,HMKRLPMRKIRDVLRLSADGLSTRKIGVSLTIGRTTVQAYLDRAAEVDLSWPLPPEMSDTDLERLIYPR,-3.14
20,HMKRNLVSVLDHIVGIGPKRRQSLRTHFGSLEKIKEASVEELAAAPGMNRTSAEAVRHFFDAQQELRGK,0.727
21,HMKRRSVIVSVVRAQVRQSADEAAAVVFEAEKNVSLDYLETMPGGWVKVRHRDGQTGFVRVNQIWG,-1.59
22,HMKRSFGYIRLLPSKRYQASYIGPDSQRHAAPETFTRKMDAEGWLSAERRLIEWDQWTSPEQRAAQARLD,-0.663
23,HMKRTRLEEAMDWLREQLNDGPVAYATLKDEAPKAEITLSTLRAAGEALRVDKQKKGVQWGGWTWSLPR,0.00234
24,HMKRVTRQRTEILRVIDESERPLGPQEILQAGREAIPSLSIATIYRTLRDLLAEELIKTVALPGDSPRYES,-1.33
25,HMKSARDDILSALDKAGEPLSMKDIAELSGRKLSTLRAQMTRLVAEGAVQATAAAHSPDRKYRK,-0.319
26,HMKSARQIAILEIIAEKSIETQEDLADALRLRGFQVTQATVSRDIKELRLVKALAPDGTYRYATAEK,-1.57

row,Sequence,soluble fraction (log2)
1,HMKSEIRKKNSQIILDAAEHEFSVHGYRGTSVQMIADRSGLPKANLHYYYKSKSALYGAVLDRIL,0.215
2,HMKSERHALILSLIEKKNVETQEDLAELLKERGVAVTQATVSRDIKELRLIKVLSETGGYKYATVDKAE,-0.908
3,HMKSIETVAELVAELKKLNPNAKISNIDGTYTLEEDINTITLPKDFKYDNNLGINNKIDDFTPYISLDVKA,0.662
4,HMKSIRIPFILTEGPNSQKITIDIDSDEEFRIGDVFDEDDKLWSINQILISGDRKAKMAIASEVTSISALR,-2.01
5,HMKSKYLIKIEGDFDEKDLYKYLINVSIVNHTKNNGFTEVEFYNDNYSLQQNFLKSMLNDGIIITEFKKVE,-0.49
6,HMKSLHSEVTDRIRQLIVESHLQPGQRVPELEISRDLGVSRTPIREALKVLAAEGLVELLPLRGAMVK,-0.0555
7,HMKSLLTARQLEVFEIARNKGYWTTPRKISLVELSKLLDISKSTLSVLLHSIEGKVMEEFYEEIRQ,-2.22
8,HMKSNIIPLSLKKPQRLDIFLTNYFVDLSRTQIKKMITDGNIKVNDLIAKPSLKLIGDEIIFYTLPK,-1.46
9,HMKSNNPLDHVRVKQRGASWAYYFEKAKVDGKRRRGEGGGYATEQDARMAGVEAYNAYIGGGAK,-0.172
10,HMKSPVKLILRGSIYHIKISAVVNGQRIFVRESSHTTDKREAEQYANKRFAQLVEETEFRTN,-1.18
11,HMKSQSIFNVKKGDTLSHIAVHVLKKNKQKVTPEAINKMVSNIAFRNKIKNPDLIFPGQKLVLEY,-0.169
12,HMKSQVVAYSDFVKAVNQKQINEVQIQGDKIRAINKAGEEITVTWLQNDQKLMDDLLDNNVKTIFLE,0.0189
13,HMKSSYSGNFKQNVVEYMHNNHLSATETANHFKLGGGSVVLRWERIYYEEGPQALYEERRGR,-1.26
14,HMKSYAQIAEILSGQQPNTSRKEGSNLAVHADWIDALIAKYGTALRPEEANEVVKKEIGIVFSHVLEN,-0.412
15,HMKSYQKITPATEGNYLTTYREGDDIKTYEGVKAMYTPADFDASSVREITPEEHQSYQKAKEQALQEETEQ,-0.204
16,HMKTALDEAKDFLNGALSKGHRPASDVVDEAKEASISEKTLKRAKLAIGIITRKEGFGSEGKWVWELPAR,-0.375
17,HMKTATAKIKATPFGWLRVRETPSLNGAEIARVNSGESYKILERGEGWIKIKVSDTVEGWVSEAYVELS,-0.244
18,HMKTEKYIQVISGTVNVRSGPGTSYAEIAKIDASQIYVVTAKEGEWLKISLANGTIGYVAGWLVKEVTG,-1.47
19,HMKTEVNITPGIIDWIERYVQTDKISSSMTEDFQHWKSGTKKPTFNQVEAFSKAINVPLGYFFLKTPPAE,-0.725
20,HMKTFSFEILADTVKKQRKAKGMTQAELSEATGINRSMIGQMENMTFKPSIEQLEALSQALDFNVIDLYTE,-0.325
21,HMKTGHLPVTVIIDGRIISDNLYKTGLSNNWLADQLRKNSIKSSEDVFFAYLNPERKFIYQLRSNS,-1.49
22,HMKTGNIVMVNLGWKGKYYSIKMFFPQVSKPSRKDVQDQIEKIYPGGKLYTFVVSNYEPGEPMLHA,-1.41
23,HMKTITLDEAQEIALAEVDGKVTRAVEETDDGRSYYEFDIITNDQKHELEVDASSGKITKNEIDEDYVPS,0.0581
24,HMKTITVEDEQAGKRLDKALAELFPHYSRSALEKLIKEGQVLVNKSFVKSKYSLKLGDEISLQFEQL,-0.325
25,HMKTKILAPIPGSIMVVDVKVGDTVKVGDRLVQLEAMKMENNITSEKAGKITAVLVTAGQKVLQNEVMIEL,-1.01
26,HMKTLLSMNIKNLRKKKNMTLEELAEKVGTSKQTIQRYESGKISNIPSDKIELLAKYLDTTPAKLMGW,-0.139

row,Sequence,soluble fraction (log2)
1,HMKTLNKRQQDIINLAREEGFVTVEHLSEYFKVTQQTIRRDLGYLSENLYLARTYGGAFFQS,-0.854
2,HMKTTKLEELDMQKEFILKNGKYGFGVYIGGKYIGLTDIGTVNSFKDSLQLPVVSLSDIDFKTFAEKF,-1.27
3,HMKTYEILFDILSRESDYISGEKLAQELGISRTSIWKAIQHLEKEGVHIESVKNKGYKLLSGDLLIAEKI,-1.77
4,HMKTYGGDNSLHKFDEHHSWMVAKYGPVVKQTINGETKWLKVKKDLTLAQVKKMKLEDVLLPKSQT,-0.534
5,HMKVDRLVSMILILLEQQRVGAQELADRFEVSVRTIYRDMEAINQAGIPVRSTSGVGGGFEIM,-0.471
6,HMKVFREERLQLILEKLIHEKKVVVSDLVKYFNVSPSLIRMDLAELEKRDLILRTHGGAILPD,-2.9
7,HMKVKEYKLVDWISTFTKNEGYGISQKAAMLLAEFLGDDLSRIANEIEKLKLLVEKGTTINDVHIEENI,-1.09
8,HMKVLFLESIEGSASMGEIKDVANGYARNFLFPNGFAVPATPKNLKNVEELQAKELEIQTERDNWAA,-0.016
9,HMKVSDLIGMLGRVTGELAPTGIVLVGNKTWTAISEDASVIASGEQVQVRSVAGLILTVSHQVD,-2.32
10,HMKVSVPDIMDNSSLRQAEAKLRALGFRVTEPEYISGEKDWVYSVTYKGRTLNAGDKVPHEALLTLHVGNG,-0.163
11,HMKVTADVVVADRLKAWIISNNLKPGDRLPTEQKLSEELGVARHTLREGIKRLSQLGIIGSRTGSGMYVKN,-1.06
12,HMKWIEILKSKDGNYALLQDEKDTQFVVASGYNPDAAEDQKWGHGSYFIYWNNKENKAEMLMNAIDLFRYR,-2.21
13,HMKYEFEFPYWSNKEAKHMIVTINYPNGTRATASIQDNDGSNPDYKRIMEEFGEEQIDANTEEGLKRR,-0.0803
14,HMKYEGEDEYYASLVTEKIAAIGTVTEESEDAIKEARAAYDALTSAQKKLVTNYDVLDEAEK,-0.144
15,HMKYGPSTVATLKVARLGEMGAFLDAETGDTSDDILLHKTQQTAPVKVGDEVEVFLYLDPKRRLTASMRV,-0.118
16,HMKYGPSTVAVLTVVRESEMGAFLDAETGRTNDDILLHKTQQTEPVHIGDQVKVFLYLDPKHRLTASMRVP,-1.03
17,HMKYNETEFKNLVAKLYNGEIEIVGKFTGLSYPILVKDKYGIMLSQKANLILNYRPTINIALNKTEYAMN,-0.289
18,HMKYSELLLEIILQSKEHPTAEQIFIEAKKRNPKIVQATVYNNLKNLLAQGRVIRISNPGQPDRYDNT,-1.83
19,HMKYVDYYATLGVARDADLATITKAYRKLARQTHPDLNQGADNEARFKAAAEAYATLKHPEKRAAYDELGQ,0.0183
20,HMKYWTISDLYSKLEEDQVELGAFSEDSNKVTVLDRQGYEHVIKILSSDVPALTELFRKKKVRFAVAG,-1.3
21,HMKYYIYQGVGASGELTKIAEVTDQKTYTVTGLQAKTTYRFAVSSYNGLRESTKSNIVTVTT,-0.134
22,HMLAAAVVVYATDKVNVRAEASETADVIGQLEAGSQTTRLEDKDGWSRIDYSNGTQGYMKSEFLSTEAPT,0.347
23,HMLADEPTGALDSKTSVQIMALLTEIAQDRLVIMVTHNPELADEYATRIVNLRDGVISDDSDPFNP,-0.0933
24,HMLAEEAFNKQAATAGYVYRDGSYHPAASVAQYDAMPRNYRTNTMAQELSRSQVESQLQQSQ,0.752
